Among the data in paper PMC12408736 are binding signal and binding signal (fold shifted probe remaining (reference)) values, retold here.

This series relates to Rap1 (Naumovozyma castellii). The experiment in a line: competition EMSA. To be noted: labeled N1 probe, 10 mM Tris-HCl pH 7.5, 7 mM MgCl2, 8% glycerol, 10 fmol probe in 15 µl, ~0.6 µg Rap1 extract, 1.5 µg non-specific competitor (E. coli DNA, salmon sperm DNA …); for binding signal: 400x competitor, scale: fold shifted probe remaining vs telomeric competitor. (In general: Mobility shift assays separate free from complexed probe on a gel.)

Consider “AAGATTTGTATAGTCTGGGTAATGTATGTCAT (double strand) [ST-3]”, for which the binding signal was 91.

With “AAGGATAGTTGGTCTGGGTGAGGATATTCTGTT (double strand) [ST-1]”, the binding signal was 60.

In the case of “GTCTGGGTGTCTGGGTGTC (double strand) [telomeric ds-probe (19 bp)]”, the binding signal (fold shifted probe remaining (reference)) (unlabeled N1 as competitor) was determined as 1.

Consider “GTGTCGTTAGGTACGGAGGGTGTTGTTTGGAATATG (double strand) [ST-4]”, for which the binding signal turned out to be 33.

As for “TGTTGTTGATGGTGGTGTTGTTTTTTTGTC (double strand) [ST-2]”, the binding signal was 66.
